{"source": "the DeepSol protein solubility set"}
{"assay": "soluble on expression in E. coli; label from the status in PepcDB or PDB records"}
{"sequence": "MNELINGNAIKMTSIEIAELVESRHSNVKVSIDRLVKRGVIKPPALQHTNIINDLGVITGKRDFYVFEGEKGKRDSIIVVAQLSPEFTARLVDRWRELEEAAVNIPKTLPEALRLAADLAEQKMQLENQLAIAAPKVEFADRVGEASGILIGNFAKVVGIGPNKLFAWMRDHKILIASGARRNVPMQEYMERGYFTVKETAVNTNHGIQISFTTKITGRGQQWLTRKLLDNGMLKVTGEAA", "soluble on expression in E. coli": "not soluble"}
{"sequence": "SRFRFCGDLDCPDWVLAEISTLAKISSVKLRLLCSQVLKELLGQGIDYEKILKLTADAKFESGDVKATVAVLSFILSSAAKHSVDSDSLSSELQQLGLPKEHATSLCRCYEEKQSPLQEHLRACSLRVNRLASVGWRVDYTLSSSLLHSVEEPMVHLQLQVVPAPGTQAQPVSMSLSADKFQVLLAELKQAQTMMTALG", "soluble on expression in E. coli": "soluble"}
{"sequence": "MSLMLEPNPTQIKEERIYAEMGLTDEEFAMVEKILGRLPNYTETGLFSVMWSEHCSYKNSKPVLRKFPTTGERVLQGPGEGAGIVDIGDNQAVVFKMESHNHPSAIEPYQGAATGVGGIIRDVFSMGARPVALLNSLRFGELQSPRVKYLFEEVVAGIAGYGNCIGIPTVGGEVQFDPCYEGNPLVNAMCVGLINHEDIKKGQAHGAGNTVMYVGASTGRDGIHGATFASEELSESSEAKRPAVQVGDPFMEKLLIEACLELIQSDALVGIQDMGAAGLTSSSAEMASKAGMGIEMYLDDVPQRETGMTPYEMMLSESQERMLIVVKKGREQEIVDLFEKYGLAAVTMGKVTEDKMLRLFHKGEMVAEVPADALAEEAPIYHKPSKEAAYFAEFQQMKMETPKVENYKETLFALLQQPTIASKEWVYDQYDYQVRTSTVVTPGSDAAVVRVRGTEKGLAMTTDCNSRYIYLDPEVGGKIAVAEAARNIVCSGGEPLAITDCLNFGNPEKPEIFWQIEKSVDGMSEACRTLQTPVIGGNVSMYNERSGEAVYPTPTVGMVGLVHDLKHVTTQEFKQAGDLVYVIGETKAEFGGSELQKMLHGKIFGQSPSIDLDVELKRQKQVLAAIQAGLVQSAHDVAEGGLAVAISESAIGANGLGATVKLDGEATAALFAESQSRFVITVKRENKEAFEKAVEAIQVGEVTNTNEVTIHNEENEVLLTANVDEMRKAWKGAIPCLLK", "soluble on expression in E. coli": "not soluble"}
{"sequence": "MHHHHHHHHHHISSASGESQMSLDEIEDVYHTRPGYRPEEYRWGQGGAKIIDYHIQSAGVDFPPSLTGNQQTDFLMKVVFEYDFDCVVPGILIKTLDGLFLYGTNSFLASEGRENISVSRGDVRVFKFSLPVDLNSGDYLLSFGISAGNPQTDMTPLDRRYDSIILHVTKSMDFWGVIDLKSSFTSYQ", "soluble on expression in E. coli": "soluble"}
{"sequence": "MIKLERETKPDYLSDEKVFELTESFKATKKSVWNHDHIKIPLLRSSHSKCAYCECPLTSASNYMEVEHFEDKNHYPEKVVLWENLLPSCKKCNGAKGQHDVIGDPIINPYVEDPKNHLSMRLYRFRAKSDKGQSTIEVTQLNSSDRSVFCRYEIGEKISEMIDLGFERWNEYLVRNNTRSKNKLVNLVQGLLNECQPTSSYSASTATNLLTDPKFIELMSLMREADIVSEELDDLILKASTLVLDYVLEHHHHHH", "soluble on expression in E. coli": "not soluble"}
{"sequence": "WNRRTEQLTDGLGAQIDPDSMTPASPADIDTLTAWRQGKIIFKDQPLASVVKEMNRYLPQPITITDHRLDQVRIAGVFNTGDSAAFLQALHKSIPVQVILHADGSTELSLPR", "soluble on expression in E. coli": "not soluble"}
{"sequence": "MLYLNQKPEYSKYDIGDYTYSKVGPTIFSWNDETKLKIGKFCSLGEEVVFLLGGEHRADWITTYPFNALFGEGAHITGHPSSKGDIVVGNDVWIGYQSCISSGVTIGNGAIIGARSVITKDVPPYAIVAGNPAKFVRYRFPQETIDKLESLAWWDWDISVIKGAIPLLLSNKIDEFFTSPEKEST", "soluble on expression in E. coli": "not soluble"}
{"sequence": "SLTTEVVMENVTAFWEEGFGELFEKAKQNNNNRKTSNGDDSLSFSNFSLLGTPVLKDINFKIERGQLLAVAGSTGAGKTSLLMMIMGELEPSEGKIKHSGRISFCSQFSWIMPGTIKENIIFGVSYDEYRYRSVIKACQLEEDISKFAEKDNIVLGEGGITLSGGQRARISLARAVYKDADLYLLDSPFGYLDVLTEKEIFESCVCKLMANKTRILVTSKMEHLKKADKILILHEGSSYFYGTFSELQNLQPDFSSKLMGGGGGSGGGGSGGGGSDDIWPSGGQMTVKDLTAKYTEGGNAILENISFSISPGQRVGLLGRTGSGKSTLLSAFLRLLNTEGEIQIDGVSWDSITLQQWRKAFGVIPQKVFIFSGTFRKNLDPYEQWSDQEIWKVADEVGLRSVIEQFPGKLDFVLVDGGCVLSHGHKQLMCLARSVLSKAKILLLDQPSAHLDPVTYQIIRRTLKQAFADCTVILCEHRIEAMLECQQFLVIEENKVRQYDSIQKLLNERSLFRQAISPSDR", "soluble on expression in E. coli": "soluble"}
{"sequence": "MSLAQKRYKHILWDLDGTIIDSKIGVSESIRYCLKYFNIEVTCLDEFKPMIGPPLQDSLREIYNFSPQQVEIACKLYDEYYMKKGIHEYKVFQNIEKVLSQLQNDNKELYVATTKPEYAAKQLLADCKLDTYFKFIGGDNEEFTRSNKADVIQYVLSANNISATDNVVMIGDRKYDMLAAKKIGIDTIGVLYGYGDRNELLTNGAQYIIEEPYELLNLLKGEGHHHHHH", "soluble on expression in E. coli": "soluble"}
{"sequence": "MMDDILKQIKAGEVSGVQFKERILDKYDIACELVAFSNSHGGKLVVGIKDKTGETNALSYSEVQETTNLLSDIASENVVPSILIKIDTVEVEDGNLVVATVKEGLNKPYHDNKGIVWVKNGADKRKVFDNAELAEMMTDCGSFAPDEAGVRDATVNDLDATTIKQFLGNRFERVLDKKGLTGDAFNEASLDMICSAIAKGHDCEKILRNLRFIRPDGTLTVAAMLLFGKYTQRWMPMMTAKCICFAGNSVGSKVFRDKVNDADMEGNLLHQYDTIMDFFTRNLHNVQVGDEFNSMGKLEIPYTSLVEFTVNSLVHRSLNMKAPVRIFIFDNRVEIHSPGALPNGLTIDDIKAGTSMPRNTFLFNNAIYLLPYTGVGSGITRALDEDINVTFMNNDKAQEFVITVWRGESNQVEDLDTGLRHSDTDLDTGLRHSDTDLDTKRVTLTNKEKDIVNFCSVPRTTKEILDRIGVSMHSKNRERYITSLVAAGYLQMTNPDNPTASNQKYKKVNKR", "soluble on expression in E. coli": "not soluble"}
{"sequence": "MVTLTTNTEGATIYYTLDGSNPTNKSVRYNGRIVVNENSVIKAIAEKEGLTSSAISTFSFVIVNNEPVRIHDIQGKSHLSPYNGKKVYNVEGVVTALDKNGFYIEDNQPDNDPATSEGMYVYKKDANVAVGDLIQVDGVVEEYVGPGYAERFDTDLTTTEIKASRVVVIAKDQVLPAPIVLGENGVKIPDQIIDNDAFGLFDPNEDAIDFYESVEGMRVTMPTPKIIAPQKNGNLYVTVKNGGNKVVTKYGTPVLDENQLNPERLSVKVPRDYVAKVGDTFTGDITGVVGYDYGSFRIAPITELPSVVDGGFKQIGANIQPRLDKLEHHHHHH", "soluble on expression in E. coli": "soluble"}
{"sequence": "MGSDKIHHHHHHEATETQNEKVKVKVETVSVQDVEQLSEFTATVEANIKNNIAPQTPFRIEKIFAEVGDHVKAGQLLAKMDATSLKQAKIQLDNQEIEFKRIDELYKVGGASKSAWDAQKTSLEVARETYKNLVENTQLLSPISGIVTARNYDSGDMYSGGNPIYTVEEIRPVKLMVNVSESLFTKVKKGHEVDIRLDVYGDEVFKGKVNLVYPTIDPATRTFPVEIKIANSDERVRPGMFARVTMSFGHMDHVVAPDRSIVKQSGAGDRYIYVCKDGKVSYQKVKLGRRMGDKYEIISGVEDGDQVVITGQSRLTNGMEVEIENE", "soluble on expression in E. coli": "not soluble"}
{"sequence": "MANRSHHNAGHRAMNALRKSGQKHSSESQLGSSEIGTTRHVYDVCDCLDTLAKLPDDSVQLIICDPPYNIMLADWDDHMDYIGWAKRWLAEAERVLSPTGSIAIFGGLQYQGEAGSGDLISIISHMRQNSKMLLANLIIWNYPNGMSAQRFFANRHEEIAWFAKTKKYFFDLDAVREPYDEETKAAYMKDKRLNPESVEKGRNPTNVWRMSRLNGNSLERVGHPTQKPAAVIERLVRALSHPGSTVLDFFAGSGVTARVAIQEGRNSICTDAAPVFKEYYQKQLTFLQDDGLIDKARSYEIVEGAANFGAALQRGDVAS", "soluble on expression in E. coli": "soluble"}
{"sequence": "MQMNHPIYIASDHTGLELKSLVIKHLEQQKLQVIDLGPTELDPLDDYPDYAFLLAQTMQANPNSLGILICGTGVGVCMAANKAKGILAALVVDSKTAALARQHDDANVLCLSSRFVVPEENIKIVDEFLQAQFEGGRHSKRVGKIIAYEREK", "soluble on expression in E. coli": "soluble"}
{"sequence": "MAHHHHHHMESGKNAHRLNRIFRKPKTMVAPRAWRPAADGEGERQQPFSGVSLQRINAMISELSEEERTRALAQQDPPTVVQEELAKRAARFGLTIERADAGNNEKTASSEITPEVQAVFQRRMERFGQSAAEEAMQKRVARFGNAATSAEGPGVELKLSEADREAMQRRQSRFGG", "soluble on expression in E. coli": "soluble"}
